Data taken from the supplement of paper PMC6757056.
± gives the standard deviation of the averaged measurements.

B1: library; a variant is named by its letters at N, in order (parent)
chain: GCUGUCACCGAGAAACUGUGAAGUAUAUCUUAAACCUGGGCACUUAAAAGAUAUAUGGAGUUAGUAGUGCAACCUGCUCGGUCUGAUGAGUCCNNNNNNGGACGAAACAGC

Key:
cyclic di-GMP [1] = variants of: B1; assay: normalized RNA/DNA level without ligand (relative to sTRSVctl = 100) (log10 (% of sTRSVctl)); HEK293T; ligand: cyclic di-GMP (c-di-GMP-II aptamer); higher = less ribozyme self-cleavage, higher mRNA level; conditions: reporter: mCherry (pCS4076), ligand present: no
Summary of the method: (§1)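 Only sequences with at least 100 DNA reads were analyzed, from HEK293T cells transfected with 4 µg per 6-well well of ribozyme switch library plasmids 72 h before RNA extraction with EDTA. Any ligand was added 1 h before transfection. RNA level was defined as RNA over DNA reads, normalized to a spiked-in non-cleaving sequence or to the top sequences, then scaled and log-transformed. The top set was 25 sequences, and the scaling was ×100 followed by log10.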

cyclic di-GMP [2] = variants of: B1; assay: normalized RNA/DNA level with ligand (relative to sTRSVctl = 100) (log10 (% of sTRSVctl)); HEK293T; ligand: cyclic di-GMP (c-di-GMP-II aptamer); ligand concentration (+) RNA-Seq: 1 mM; higher = less ribozyme self-cleavage, higher mRNA level; conditions: reporter: mCherry (pCS4076), ligand present: yes
Summary of the method: as §1

Variant | normalized RNA/DNA level without ligand (log10) (cyclic di-GMP [1]) | normalized RNA/DNA level with ligand (log10) (cyclic di-GMP [2])
GUGAGG | 1.61 ± 0.06 | 1.8 ± 0.093
GUGAGC | 1.51 ± 0.086 | 1.77 ± 0.041
UUGAAC | 1.691 ± 0.0046 | 1.82 ± 0.11
UUGAAU | 1.661 ± 0.0028 | 1.83 ± 0.095
AUCUCG | 1.76 ± 0.023 | 1.87 ± 0.15
AUCUCA | 1.666 ± 0.0097 | 1.78 ± 0.16
AUCUCU | 1.669 ± 0.0069 | 1.86 ± 0.042
AUCUCC | 1.806 ± 0.0081 | 1.9 ± 0.034
UUCUAG | 1.75 ± 0.047 | 1.84 ± 0.15
UUCUAC | 1.75 ± 0.025 | 1.9 ± 0.035
UUCUAU | 1.721 ± 0.0074 | 1.83 ± 0.11
UUCUAA | 1.66 ± 0.025 | 1.8 ± 0.11
AUCGGG | 1.67 ± 0.069 | 1.81 ± 0.12
AUCGGU | 1.647 ± 0.0035 | 1.78 ± 0.066
AUCGGC | 1.78 ± 0.033 | 1.87 ± 0.16
AUCUGA | 1.56 ± 0.099 | 1.71 ± 0.079
AUCUGU | 1.731 ± 0.012 | 1.88 ± 0.15
CUCUUU | 1.6 ± 0.071 | 1.76 ± 0.079
CUCUUC | 1.73 ± 0.052 | 1.87 ± 0.082
AUCGCA | 1.65 ± 0.018 | 1.77 ± 0.12

Variant | normalized RNA/DNA level without ligand (log10) (cyclic di-GMP [1]) | normalized RNA/DNA level with ligand (log10) (cyclic di-GMP [2])
AUCGCC | 1.78 ± 0.013 | 1.88 ± 0.15
AUCGCG | 1.75 ± 0.035 | 1.84 ± 0.054
AUCGCU | 1.7 ± 0.023 | 1.81 ± 0.089
GUCUGG | 1.68 ± 0.036 | 1.86 ± 0.049
GUCUGC | 1.732 ± 0.012 | 1.87 ± 0.12
GUCUGA | 1.54 ± 0.018 | 1.75 ± 0.11
CUCGAG | 1.71 ± 0.034 | 1.86 ± 0.11
CUCGAU | 1.72 ± 0.023 | 1.86 ± 0.081
CUCGAC | 1.714 ± 0.0032 | 1.85 ± 0.069
UUCGAC | 1.659 ± 0.0063 | 1.79 ± 0.12
UUCGAA | 1.6 ± 0.041 | 1.82 ± 0.043
UUCGAU | 1.69 ± 0.066 | 1.85 ± 0.16
UUCGAG | 1.6344 ± 1.3e-05 | 1.81 ± 0.14
UUCUUC | 1.78 ± 0.05 | 1.89 ± 0.16
UUCUUU | 1.74 ± 0.024 | 1.9 ± 0.081
UUCUUG | 1.73 ± 0.045 | 1.86 ± 0.11
UUCUUA | 1.76 ± 0.095 | 1.87 ± 0.15
UUCUCG | 1.8 ± 0.065 | 1.91 ± 0.15
UUCUCC | 1.83 ± 0.031 | 1.9 ± 0.1
UUCUCU | 1.8 ± 0.039 | 1.91 ± 0.11

Variant | normalized RNA/DNA level without ligand (log10) (cyclic di-GMP [1]) | normalized RNA/DNA level with ligand (log10) (cyclic di-GMP [2])
UUCUCA | 1.78 ± 0.073 | 1.9 ± 0.087
AUCAGU | 1.67 ± 0.065 | 1.82 ± 0.02
AUCAGC | 1.82 ± 0.025 | 1.88 ± 0.13
AUCAGG | 1.62 ± 0.072 | 1.77 ± 0.12
GUGACG | 1.66 ± 0.021 | 1.77 ± 0.11
GUGACC | 1.67 ± 0.065 | 1.824 ± 0.015
GUGACA | 1.665 ± 0.0036 | 1.79 ± 0.069
GUGACU | 1.671 ± 0.002 | 1.8 ± 0.089
GUGAUA | 1.5 ± 0.034 | 1.7 ± 0.097
CUCCGA | 1.69 ± 0.016 | 1.82 ± 0.15
CUCCGG | 1.79 ± 0.072 | 1.87 ± 0.17
CUCCGC | 1.78 ± 0.019 | 1.91 ± 0.073
GUCUAC | 1.739 ± 0.0096 | 1.89 ± 0.14
GUCUAA | 1.56 ± 0.069 | 1.72 ± 0.098
GUCUAG | 1.62 ± 0.066 | 1.79 ± 0.072
GUCUAU | 1.64 ± 0.045 | 1.78 ± 0.14
UUCAUA | 1.69 ± 0.019 | 1.82 ± 0.12
UUCAUG | 1.698 ± 0.013 | 1.83 ± 0.087
